Consider six molecules from US20250122303A1 (HUMMINGBIRD BIOSCIENCE PTE, published 2025).

Positions count from the first letter of the chain named. Names and notes keep the numbering of the source.

The target of experiment [1] is T1, His-tagged human HER3 (human, UniProt P21860 20-643).
T1 construct: Antigen of the BLI experiments and of the HER2-Fc dimerisation ELISA; also called HER3 His; not shown: His tag
In words: BLI (Octet QK384), antibody on anti-human IgG capture tips, His-tagged human HER3 in solution, global one-site fit. On the procedure: The anti-HER3 antibody clones in IgG1 format were analysed for binding affinity to human HER3. Bio-Layer Interferometry (BLI) experiments were performed using the Octet QK384 system (ForteBio). anti-Human IgG Capture (AHC) Octet sensor tips (Pall ForteBio, USA) were used to anti-HER3 antibodies (25 nM). All measurements were performed at 25° C. with agitation at 1000 rpm. […] Sensograms were referenced for buffer effects and then fitted using the Octet QK384 user software (Pall ForteBio, USA). Kinetic responses were subjected to a global fitting using a one site binding model to obtain values for association (Kₒₙ), dissociation (Koff) rate constants and the equilibrium dissociation constant (KD). Only curves that could be reliably fitted with the software (R²>0.90) were included in the analysis.

In experiment [2] the target is T2, His-tagged FcγRIIIa (V158) (human, UniProt P08637 17-208).
T2 construct: not shown: His tag
In words: Bio-Layer Interferometry; His-tagged FcγRIIIa (V158) on anti-Penta-HIS tips, antibody in solution. As to the method:
All measurements were performed at 25° C. with agitation at 1000 rpm. […] Sensograms were referenced for buffer effects and then fitted using the Octet QK384 user software (Pall ForteBio, USA). Kinetic responses were subjected to a global fitting using a one site binding model to obtain values for association (Kₒₙ), dissociation (Koff) rate constants and the equilibrium dissociation constant (KD). Only curves that could be reliably fitted with the software (R²>0.90) were included in the analysis.
BLI was performed as described above.

Another experiment addresses T3, moFcRn (mouse, UniProt Q61559).
T3 construct: recombinant; also called mouse FcRn; gene FCGRT (so in the source)
T3 sequence (receptor, looked up): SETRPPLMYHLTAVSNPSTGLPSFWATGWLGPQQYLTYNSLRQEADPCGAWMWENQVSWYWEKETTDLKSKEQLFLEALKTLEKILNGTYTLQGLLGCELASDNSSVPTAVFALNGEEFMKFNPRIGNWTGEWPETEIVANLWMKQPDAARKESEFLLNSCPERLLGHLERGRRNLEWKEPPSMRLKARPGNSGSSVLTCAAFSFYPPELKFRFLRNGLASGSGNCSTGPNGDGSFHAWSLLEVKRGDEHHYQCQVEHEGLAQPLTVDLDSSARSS
T3 sequence (looked up): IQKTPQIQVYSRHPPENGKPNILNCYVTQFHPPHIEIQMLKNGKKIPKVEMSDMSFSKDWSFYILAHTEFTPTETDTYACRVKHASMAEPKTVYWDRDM
In words: Bio-Layer Interferometry (determined as described in Example 7).

A further experiment deals with T4, FcRn (human, UniProt P55899).
T4 construct: recombinant; also called human FcRn; gene FCGRT (so in the source)
The experiment is described as above.

Experiment [3] concerns the target T1, His-tagged human HER3. In words: Bio-Layer Interferometry (Octet QK384); antibody on anti-Human IgG Capture tips, HIS-tagged human HER3 at 30.3, 60.5, 121 and 242 nM.
The next experiment deals with T5, moFcgRIV.
T5 construct: also called CD16-2; mFcγRIV
T5 chain: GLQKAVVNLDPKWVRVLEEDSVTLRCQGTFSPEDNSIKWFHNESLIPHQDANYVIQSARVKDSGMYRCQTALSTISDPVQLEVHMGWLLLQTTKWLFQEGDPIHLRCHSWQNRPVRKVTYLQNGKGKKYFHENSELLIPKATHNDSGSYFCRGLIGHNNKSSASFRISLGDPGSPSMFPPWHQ
In words: Bio-Layer Interferometry (determined as described in Example 7).

A further experiment has as its target T6, FcgRIIA (H167) (human, UniProt P12318).
T6 construct: recombinant; also called CD32A; hFcγRIIa167H
T6 sequence (receptor, looked up): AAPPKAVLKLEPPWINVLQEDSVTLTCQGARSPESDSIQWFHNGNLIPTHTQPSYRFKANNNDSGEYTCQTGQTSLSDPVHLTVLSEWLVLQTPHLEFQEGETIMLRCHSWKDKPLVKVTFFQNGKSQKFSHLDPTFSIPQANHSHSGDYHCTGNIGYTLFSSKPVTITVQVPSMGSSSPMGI
The experiment is described as above.

Another experiment deals with T7, FcgRIIA (R167) (human, UniProt P12318).
T7 construct: recombinant; also called CD32A; hFcγRIIa167R
T7 sequence (receptor, looked up): T6 sequence (receptor, looked up) with H132R
Described as above.

Experiment [4] addresses T2, His-tagged FcγRIIIa (V158). The description is as above.
Another experiment deals with T8, FcgRIIB (human, UniProt P31994).
T8 construct: recombinant; also called CD32B; hFcγRIIb
T8 sequence (receptor, looked up): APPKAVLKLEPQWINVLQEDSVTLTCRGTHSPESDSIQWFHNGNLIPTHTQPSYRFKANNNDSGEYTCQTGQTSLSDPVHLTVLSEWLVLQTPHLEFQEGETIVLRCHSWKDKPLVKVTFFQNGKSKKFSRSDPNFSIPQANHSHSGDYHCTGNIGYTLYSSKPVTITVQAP
The description is as above.

Another experiment has as its target T9, FcgRIIIA (F158) (human, UniProt P08637).
T9 construct: recombinant; also called CD16A; hFcγRIIIa158F
The description is as above.

Experiment [5] has as its target T1, His-tagged human HER3. In words: plate ELISA dimerisation assay; HER2-Fc coated, constant HER3 His and NRG, antibody varied; blocked partner HER2-Fc. As to the method: Plate-based ELISA dimerisation assays were carried out according to standard protocols. Plates were coated with 1 μg/ml HER2-Fc protein. […] Plates were then washed and incubated for 1 hour with secondary anti-HIS HRP antibody. […] The absorbance was read at 450 nm.

Experiment [6] addresses T10, human HER3 expressed on cells (HEK293 HER3 O/E cells) (human, UniProt P21860 20-1342).
T10 construct: Also used here for HER3 on U2OS cells of the PathHunter kit and on cancer cell lines; also called HEK293 cells transfected with vector encoding human HER3; human HER3-expressing cells
In words: flow cytometry, HEK293 and HEK293 cells overexpressing human HER3, 20 ug/ml antibody, FITC anti-Fc secondary. As to the method:
The cells were washed thrice with FACS buffer (PBS with 5 mM EDTA and 0.5% BSA) and resuspended in FITC-conjugated anti-FC antibody (Invitrogen, USA) for 40 min at 2-8° C. Cells were washed again and resuspended in 200 μL of FACS flow buffer (PBS with 5 mM EDTA) for flow cytometric analysis using MACSQuant 10 (Miltenyi Biotec, Germany). After acquisition, all raw data were analyzed using Flowlogic software. Cells were gated using forward and side scatter profile percentage of positive cells was determined for native and overexpressing cell populations.

B1: anti-HER3 clone 4-35-B4 IgG1 (antibody, V domains shown)
VH: EVQLQQSGAELVKPGASVKLSCTASGFNIKDTYIHWVKQRPDQGLEWIGKIIDPANGNTNYDPKFQGKATITADTSSNTAYLQLSSLSSEDTAVYFCARGLHWGQGTTLTVSS
VL: DIVLTQSPASLAVSLGQRATISCRASKSVSTSGYSYMHWYQQKPGQPPKLLIYLASNLESGVPARFSGSGSGTDFTLNIHPVEEEDAATYYCQHSRELPYTFGGGTKLEIKR
notes: Human-mouse chimeric IgG1/kappa
In turn, B1 returned an equilibrium dissociation constant (Kd) with His-tagged human HER3 [1] of 50.3 nM.

B2: 10D1 GASD variant (antibody, human IgG1, kappa)
heavy: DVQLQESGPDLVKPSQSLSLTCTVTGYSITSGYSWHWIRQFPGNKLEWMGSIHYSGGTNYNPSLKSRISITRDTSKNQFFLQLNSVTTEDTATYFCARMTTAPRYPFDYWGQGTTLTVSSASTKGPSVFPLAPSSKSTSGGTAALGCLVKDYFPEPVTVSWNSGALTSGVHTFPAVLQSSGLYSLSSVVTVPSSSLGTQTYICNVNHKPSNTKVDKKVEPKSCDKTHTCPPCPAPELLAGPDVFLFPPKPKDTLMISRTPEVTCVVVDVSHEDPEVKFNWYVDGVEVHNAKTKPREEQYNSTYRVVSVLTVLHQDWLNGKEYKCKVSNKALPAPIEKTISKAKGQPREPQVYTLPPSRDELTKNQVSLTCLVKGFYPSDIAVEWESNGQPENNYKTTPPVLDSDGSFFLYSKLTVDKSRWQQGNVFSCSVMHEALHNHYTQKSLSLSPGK
light: DIVMTQSQKFMSTSVGDRVSVTCKASQIVGSNVAWYQQKPGQSPKPLIYSASYRYSGVPDRFTASGSGTDFTLTITNVQSEDLAEYFCQQYSSHPLTFGAGTKLELKRTVAAPSVFIFPPSDEQLKSGTASVVCLLNNFYPREAKVQWKVDNALQSGNSQESVTEQDSKDSTYSLSSTLTLSKADYEKHKVYACEVTHQGLSSPVTKSFNRGEC
notes: also called Fc-modified anti-HER3 antibody clone 10D1 comprising GASD substitutions in CH2 region
B2: in experiment [2], the affinity, expressed as Kd, was 58 nM; the off-rate (koff) stood at 0.009 s⁻¹; the kon was found to be 160000 M⁻¹ s⁻¹.

B3: 10D1F hIgG1 N297Q (antibody)
heavy chain: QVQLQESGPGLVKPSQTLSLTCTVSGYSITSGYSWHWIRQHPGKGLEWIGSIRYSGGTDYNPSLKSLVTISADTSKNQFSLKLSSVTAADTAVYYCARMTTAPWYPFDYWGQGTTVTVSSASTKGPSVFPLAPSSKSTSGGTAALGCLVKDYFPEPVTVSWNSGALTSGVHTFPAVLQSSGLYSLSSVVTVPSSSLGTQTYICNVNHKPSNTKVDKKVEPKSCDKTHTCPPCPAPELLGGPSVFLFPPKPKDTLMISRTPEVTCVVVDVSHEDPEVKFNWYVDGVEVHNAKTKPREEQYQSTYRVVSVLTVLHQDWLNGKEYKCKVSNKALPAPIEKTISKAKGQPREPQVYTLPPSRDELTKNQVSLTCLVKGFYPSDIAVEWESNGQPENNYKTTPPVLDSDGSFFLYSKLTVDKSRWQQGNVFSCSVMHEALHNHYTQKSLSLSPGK
light chain: DIQMTQSPSSVSASVGDRVTITCKASQIVGSNVAWYQQKPGKAPEPLIYSASYLYSGVPSRFSGSGSGTDFTLTISSLQPEDFATYYCQQYSSHPLTFGQGTKLEIKRTVAAPSVFIFPPSDEQLKSGTASVVCLLNNFYPREAKVQWKVDNALQSGNSQESVTEQDSKDSTYSLSSTLTLSKADYEKHKVYACEVTHQGLSSPVTKSFNRGEC
Take B3: the Kd came out at 13.7 nM with moFcRn and 54.6 nM with FcRn.

B4: 10D1F.FcB (antibody, human IgG1, kappa)
heavy: QVQLQESGPGLVKPSQTLSLTCTVSGYSITSGYSWHWIRQHPGKGLEWIGSIRYSGGTDYNPSLKSLVTISADTSKNQFSLKLSSVTAADTAVYYCARMTTAPWYPFDYWGQGTTVTVSSASTKGPSVFPLAPSSKSTSGGTAALGCLVKDYFPEPVTVSWNSGALTSGVHTFPAVLQSSGLYSLSSVVTVPSSSLGTQTYICNVNHKPSNTKVDKKVEPKSCDKTHTCPPCPAPELLAGPDVFCFPPKPKDTLMISRTPEVTCVVVDVSHEDPEVKFNWYVDGVEVHNAKTKPREEQYNSTYRVVSVLTVLHQDWLNGKEYKCKVSNKALPLPEECTISKAKGQPREPQVYTLPPSRDELTKNQVSLTCLVKGFYPSDIAVEWESNGQPENNYKTTPPVLDSDGSFFLYSKLTVDKSRWQQGNVFSCSVMHEALHNHYTQKSLSLSPGK
light: B3 light chain
notes: also called 10D1F.B
B4: the dissociation constant (Kd) in the experiment with His-tagged human HER3 [3] turned out to be 0.0222 nM; with moFcRn, 15.2 nM; in the experiment with moFcgRIV, 55.4 nM; in the experiment with FcRn, 37.4 nM; in the experiment with FcgRIIA (H167) it was 561 nM; with FcgRIIA (R167) it was 400 nM. Further, the Kd in experiment [4] turned out to be 82.1 nM; with FcgRIIB, 580 nM; with FcgRIIIA (F158) it was 162 nM. This molecule also came in with a dissociation rate constant (koff) with His-tagged human HER3 [3] of 4.96e-06 s⁻¹. Further, the kon with His-tagged human HER3 [3] is 223000 M⁻¹ s⁻¹.

B5: M-05-74 (antibody, V domains shown)
VH: QVQLQQSGAELAKPGASVKMSCKTSGYTLTDYWIHWVKQRPGQGLEWIGYINPYTGYTESNQKFKDKATLTADKSSNTAYIQLSSLTSEDSAVYYCARPYYYGDYWGQGTTLTVSS
VL: QIVLTQSPAIMSASPGERVTITCSASSSVSYMHWFQQKPGTSPKLLIYSTSNLASGVPARFSGSGSGTSYSLTISRMEAEDAATYYCQQRSSYPFTFGSGTKLEIK
Consider B5, for which inhibition with His-tagged human HER3 [5] was half-maximal at 80.2 nM (IC50).

B6: anti-HER3 clone 10A6 IgG1 (antibody, V domains shown)
VH: DVQLQESGPGLVKPSQSLSLTCSVTGNFITSGYFWNWIRQFPGNKLEWMGFISYDGSNNYKPSLKNRISITRDTSKNQFFLKLNSVTTEDTATYYCARENYGFGFDYWGQGTTLTVSS
VL: DIVLTQSPSSLPVSIGEKVTMSCKSSQSLLYSDNQKNYLAWYQQKPGQSPKLLIYWASTWKSGVPDRFTGSGSGTDFTLTISSVKAEDLAVYYCQQYFTFPWTFGGGTKLEIKR
notes: as for B1
In the case of B6, the binding result in experiment [6] was “binds”.
